Source: patent US20180339041A1 (Kyowa Kirin, published 2018)
Values belong to the binder of their own block, whether it stands above or below them.

Target: T1, C-terminally FLAG-tagged human Gas6 recombinant protein (hGas6-F) (human, UniProt Q14393 31-678, gamma-carboxylated glutamic acid residues in the Gla domain (producer cells co-express rat VKOR and human GGCX); positions not given)
T1 construct: also called human Gas6-F; human Gas6 protein
T1 sequence: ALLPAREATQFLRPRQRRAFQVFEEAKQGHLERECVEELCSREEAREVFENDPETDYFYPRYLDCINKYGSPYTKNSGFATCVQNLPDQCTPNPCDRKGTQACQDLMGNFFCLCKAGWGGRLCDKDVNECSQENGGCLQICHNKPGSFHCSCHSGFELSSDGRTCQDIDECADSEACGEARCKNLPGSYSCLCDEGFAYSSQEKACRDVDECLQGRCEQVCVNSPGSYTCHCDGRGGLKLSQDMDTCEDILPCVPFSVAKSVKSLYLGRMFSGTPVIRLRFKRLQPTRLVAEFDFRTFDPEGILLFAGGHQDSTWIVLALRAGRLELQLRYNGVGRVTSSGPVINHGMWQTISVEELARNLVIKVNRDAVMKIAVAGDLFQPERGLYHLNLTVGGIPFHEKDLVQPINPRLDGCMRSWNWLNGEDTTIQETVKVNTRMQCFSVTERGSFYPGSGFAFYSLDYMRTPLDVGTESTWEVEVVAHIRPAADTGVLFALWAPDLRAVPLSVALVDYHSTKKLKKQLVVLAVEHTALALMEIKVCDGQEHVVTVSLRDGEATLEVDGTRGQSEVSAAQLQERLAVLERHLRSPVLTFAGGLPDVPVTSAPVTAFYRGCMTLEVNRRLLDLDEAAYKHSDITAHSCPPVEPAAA
Assay: SPR Biacore T100, captured antibody, Gas6 analyte, first test
Protocol: An anti-human IgG antibody was immobilized on a CM5 sensor chip (manufactured by GE Healthcare Japan Corp.) using Human Antibody Capture Kit (manufactured by GE Healthcare Japan Corp.) according to the attached manual. Each test antibody adjusted to 1 μg/mL was added for 10 seconds at a flow rate of 10 μL/min to flow cells. […] The measurement was performed by the […] method. The obtained sensorgram was analyzed using Bia Evaluation Software (manufactured by GE Healthcare Japan Corp.), and the kinetic constant of each antibody was calculated.

B3: hzKM5320 LV2aHV0 antibody (antibody, V domains shown)
VH: QVQLVQSGSELKKPGASVKVSCKASGYTFTNYGMNWVRQAPGQGLEWMGWINTETGEPTYSDDFKGRFVFSLDTSVSTAYLQISSLKAEDTAVYYCAREDGYYGTLDYWGQGTTVTVSS
VL: DVVMTQSPDSLAVSLGERVTINCKASQSVSNDVAWYQQKPGQSPKLLIYYASNRYTGVPDRFSGSGSGTDFTLTISSVQAEDVAVYFCQQDYSSPWTFGQGTKLEIK
notes: Humanized; variant human IgG4 constant region (EU S228P, L235E, R409K), human kappa; also called A-05
Kd: < 15.2 nM | koff: 0.00105 s⁻¹ | kon: > 69100 M⁻¹ s⁻¹

B4: hzKM5320 LV1bHV8 antibody (antibody, V domains shown)
VH: QIQLVQSGPELKKPGASVKISCKASGYTFTNYGMNWVKQAPGQGLKWMGWINTETGEPTYSDDFKGRFVFSLDTSVTTAYLQISSLKAEDTATYFCAREDGYYGTLDYWGQGTTVTVSS
VL: DVVMTQSPDSLAVSLGERVTINCKASQSVSNDVAWYQQKPGQSPKLLIYYASNRYTGVPDRFSGSGSGTDFTLTISSVQAEDVAVYYCQQDYSSPWTFGQGTKLEIK
notes: Humanized; variant human IgG4 constant region (EU S228P, L235E, R409K), human kappa; also called A-12
Kd: < 11 nM | koff: 0.000856 s⁻¹ | kon: > 77900 M⁻¹ s⁻¹

B6: hzKM5320 LV2aHV8 antibody (antibody, V domains shown)
VH: QIQLVQSGPELKKPGASVKISCKASGYTFTNYGMNWVKQAPGQGLKWMGWINTETGEPTYSDDFKGRFVFSLDTSVTTAYLQISSLKAEDTATYFCAREDGYYGTLDYWGQGTTVTVSS
VL: DVVMTQSPDSLAVSLGERVTINCKASQSVSNDVAWYQQKPGQSPKLLIYYASNRYTGVPDRFSGSGSGTDFTLTISSVQAEDVAVYFCQQDYSSPWTFGQGTKLEIK
notes: Humanized; variant human IgG4 constant region (EU S228P, L235E, R409K), human kappa; also called A-13
Kd: < 10.2 nM | koff: 0.0008 s⁻¹ | kon: > 78600 M⁻¹ s⁻¹

B7: hzKM5320 LV5HV3c antibody (antibody, V domains shown)
VH: QVQLVQSGPELKKPGASVKVSCKASGYTFTNYGMNWVKQAPGQGLKWMGWINTETGEPTYSDDFKGRFVFSLDTSVSTAYLQISSLKAEDTAVYYCAREDGYYGTLDYWGQGTTVTVSS
VL: DIVMTQSPDSLAVSLGERVTINCKASQSVSNDVAWYQQKPGQSPKVLIYYASNRYTGVPDRFSGSGSGTDFTFTISSVQAEDVAVYFCQQDYSSPWTFGQGTKLEIK
notes: Humanized; variant human IgG4 constant region (EU S228P, L235E, R409K), human kappa; also called A-23
Kd: < 1.79 nM | koff: 0.00014 s⁻¹ | kon: > 77900 M⁻¹ s⁻¹

B9: hzKM5320 LV5HV0 antibody (antibody, V domains shown)
VH: QVQLVQSGSELKKPGASVKVSCKASGYTFTNYGMNWVRQAPGQGLEWMGWINTETGEPTYSDDFKGRFVFSLDTSVSTAYLQISSLKAEDTAVYYCAREDGYYGTLDYWGQGTTVTVSS
VL: DIVMTQSPDSLAVSLGERVTINCKASQSVSNDVAWYQQKPGQSPKVLIYYASNRYTGVPDRFSGSGSGTDFTFTISSVQAEDVAVYFCQQDYSSPWTFGQGTKLEIK
notes: Humanized; variant human IgG4 constant region (EU S228P, L235E, R409K), human kappa; also called A-08
Kd: < 2.85 nM | koff: 0.00019 s⁻¹ | kon: > 66700 M⁻¹ s⁻¹

The next lines start with the values.

Kd: < 9.64 nM | koff: 0.000694 s⁻¹ | kon: > 72000 M⁻¹ s⁻¹
B1: hzKM5320 LV1aHV8 antibody (antibody, V domains shown)
VH: QIQLVQSGPELKKPGASVKISCKASGYTFTNYGMNWVKQAPGQGLKWMGWINTETGEPTYSDDFKGRFVFSLDTSVTTAYLQISSLKAEDTATYFCAREDGYYGTLDYWGQGTTVTVSS
VL: DVVMTQSPDSLAVSLGERVTINCKASQSVSNDVAWYQQKPGQSPKLLIYYASNRYTGVPDRFSGSGSGTDFTLTISSLQAEDVAVYFCQQDYSSPWTFGQGTKLEIK
notes: Humanized; variant human IgG4 constant region (EU S228P, L235E, R409K), human kappa; also called A-11

Kd: < 2.48 nM | koff: 0.000184 s⁻¹ | kon: > 74100 M⁻¹ s⁻¹
B2: hzKM5320 LV5HV1 antibody (antibody, V domains shown)
VH: QVQLVQSGSELKKPGASVKVSCKASGYTFTNYGMNWVRQAPGQGLKWMGWINTETGEPTYSDDFKGRFVFSLDTSVSTAYLQISSLKAEDTAVYYCAREDGYYGTLDYWGQGTTVTVSS
VL: DIVMTQSPDSLAVSLGERVTINCKASQSVSNDVAWYQQKPGQSPKVLIYYASNRYTGVPDRFSGSGSGTDFTFTISSVQAEDVAVYFCQQDYSSPWTFGQGTKLEIK
notes: Humanized; variant human IgG4 constant region (EU S228P, L235E, R409K), human kappa; also called A-19

Kd: < 12.6 nM | koff: 0.000829 s⁻¹ | kon: > 65700 M⁻¹ s⁻¹
B5: hzKM5320 LV1aHV0 antibody (antibody, V domains shown)
VH: QVQLVQSGSELKKPGASVKVSCKASGYTFTNYGMNWVRQAPGQGLEWMGWINTETGEPTYSDDFKGRFVFSLDTSVSTAYLQISSLKAEDTAVYYCAREDGYYGTLDYWGQGTTVTVSS
VL: DVVMTQSPDSLAVSLGERVTINCKASQSVSNDVAWYQQKPGQSPKLLIYYASNRYTGVPDRFSGSGSGTDFTLTISSLQAEDVAVYFCQQDYSSPWTFGQGTKLEIK
notes: Humanized; variant human IgG4 constant region (EU S228P, L235E, R409K), human kappa; also called A-03

Kd: < 9.77 nM | koff: 0.000791 s⁻¹ | kon: > 81000 M⁻¹ s⁻¹
B8: hzKM5320 LV2bHV8 antibody (antibody, V domains shown)
VH: QIQLVQSGPELKKPGASVKISCKASGYTFTNYGMNWVKQAPGQGLKWMGWINTETGEPTYSDDFKGRFVFSLDTSVTTAYLQISSLKAEDTATYFCAREDGYYGTLDYWGQGTTVTVSS
VL: DVVMTQSPDSLAVSAGERVTINCKASQSVSNDVAWYQQKPGQSPKLLIYYASNRYTGVPDRFSGSGSGTDFTFTISSLQAEDVAVYYCQQDYSSPWTFGQGTKLEIK
notes: Humanized; variant human IgG4 constant region (EU S228P, L235E, R409K), human kappa; also called A-14
